Reference: the supplement of paper PMC10201428
± gives the standard deviation of the averaged measurements.

Experiments:
[1] = tested on: VchCAST RNA-guided transposition machinery (E. coli BL21(DE3) host, lacZ target); assay: relative integration efficiency (T-RL orientation) vs wild-type transposon end (log2 (normalized fold change)); transposon end mutated: right end (5 bp flank + 75 bp right end); higher = more efficient transposition
Outline: (§1)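 In E. coli BL21(DE3), a T7-driven effector plasmid was paired with a pUC57 mini-transposon donor containing 1549 left-end or 1849 right-end barcoded transposon variants. Cells grew on plates with 0.1 mM IPTG at 37°C for 18 h. Relative integration efficiency was derived from Illumina reads of genomic integration junctions against input plasmids, as a log-transformed output/input barcode fold change normalised to reference barcodes.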

[2] = tested on: VchCAST RNA-guided transposition machinery (E. coli BL21(DE3) host, lacZ target); assay: relative integration efficiency (T-LR orientation) vs wild-type transposon end (log2 (normalized fold change)); transposon end mutated: right end (5 bp flank + 75 bp right end); higher = more efficient transposition
Outline: as §1

Sequence	relative integration efficiency (log2) [1]	relative integration efficiency (log2) [2]
ACATTTGTGGATACAACCCTAAAATGATAATTACACCCATAAATTCATAATTATCACCCCCAATTTAACTATAACGCTCTGATCATAGTCAGACCAACATTGCTACGACCCGTATTCGCACCGACAC	-4.88 ± 0.16	-2.64 ± 0.13
ACATTTGTTGATACCACCATAAAATGGTAATTACACCCCTACATTGATAATTATCACACCCAATTTAACTATAACGCTCTGATCATAGTCAGACCAACATTGCTACGACCCGTATTCGCACCGACAC	-4.23 ± 0.31	-0.988 ± 0.042
ACATTTGTTGATACAACCATAAAATGATAATTACACCCATACCTTGATAATTATCACACCCATAAATTGATATTGCCTCTGATCATAGTCAGACCAACATTGCTACGACCCGTATTCGCACCGACAC	-0.707 ± 0.089	-0.978 ± 0.071
ACATTTGTTGATACAACCATAAGTTGATATTTTCACCCATAAATTGATATTGCTCACACCCATAAATTGATAATTACTCTGATCATAGTCAGACCAACATTGCTACGACCCGTATTCGCACCGACAC	-0.658 ± 0.16	0.36 ± 0.054
ACATTTGTTGATACAACCATAAAAACATAATTACACCCATAAATTGATAATTATCACACCCATAAATTGATATTGCCTCTGATCATAGTCAGACCAACATTGCTACGACCCGTATTCGCACCGACAC	-1.45 ± 0.33	-1.06 ± 0.19
ACATTTGTTGATACAAGGTAAAAATGATAATTACACCCATAAATTGATAATTATCACACCCATAAATTGATATTGCCTCTGATCATAGTCAGACCAACATTGCTACGACCCGTATTCGCACCGACAC	-2.26 ± 0.11	-2.67 ± 0.22
ACATTTGTCGATACAACCATAAAATGATAATTACACCCATAAATTCATAATTATCACCCCCAATTTAACTATAACGCTCTGATCATAGTCAGACCAACATTGCTACGACCCGTATTCGCACCGACAC	-1.83 ± 0.51	1.18 ± 0.19
ACATTTGTTGATACAACCATAAAATGATAATTACACCCATAAATTGATAATTATCACCAAAATAAATTGATATTGCCTCTGATCATAGTCAGACCAACATTGCTACGACCCGTATTCGCACCGACAC	-0.112 ± 0.18	2.72 ± 0.1
ACATTTGTTGATACAACCATAAAATGATAATTACACCCATAAATTGATATTGCTCACACCCATAAATTGATATTGCCTCTGATCATAGTCAGACCAACATTGCTACGACCCGTATTCGCACCGACAC	-0.394 ± 0.045	0.786 ± 0.29
ACATTTGTTGATACAACCCTAAAATGATAATTACACCCATAAATTCATCATTATCACCCCCAATTTAACTATAACGCTCTGATCATAGTCAGACCAACATTGCTACGACCCGTATTCGCACCGACAC	-4.72 ± 0.23	-1.49 ± 0.085
ACATTTGTTGATACAACCATAAAATGATAATTACACCCATTAATTGATAATGATGACACCGAATTTAACTATAACGCTCTGATCATAGTCAGACCAACATTGCTACGACCCGTATTCGCACCGACAC	-1.4 ± 0.35	2.15 ± 0.056
ACATTTGTTGATACAACCATAAAATGATAATTACACCCATAAATTGATAATTATCACACCCATAAATTGAGCGGTAAGAGGATCATAGTCAGACCAACATTGCTACGACCCGTATTCGCACCGACAC	-0.428 ± 0.035	1.6 ± 0.023
ACATTTGTTGATACAACCATAAAATGATAATTACACCCATAAATTGATAATTATCACACCCATAAATTGATATTGCCTCTGATCATTTACTTTTGGTTACATATTTAGTCAGACCAAGCACCGACAC	0.0213 ± 0.19	0.713 ± 0.049
ACATTAGTCGATACAACCATAAAATGATAATTACACCCATAAATTCATCATTATCACACCCAATTTAACTATAACGCTCTGATCATAGTCAGACCAACATTGCTACGACCCGTATTCGCACCGACAC	-7.32 ± 0.43	-6.06 ± 1.4
ACATTTGTTGATACAACCATAAAATCATAATTACCCCCATCAATTGATAATTATCCCACCCCATTTAACTATAACGCTCTGATCATAGTCAGACCAACATTGCTACGACCCGTATTCGCACCGACAC	-5.42 ± 0.086	-2.4 ± 0.19
ACATTTGTTGATAAAACCATACGTTGATTTTACCACCCATAAATTGATAATTATCACACCCATAAATTGATATTGCCTCTGATCATAGTCAGACCAACATTGCTACGACCCGTATTCGCACCGACAC	-2.65 ± 0.17	-2.98 ± 0.21
ACATTTGTTGATACAACCATAAAATGATAATTACACCCATAAATTGATAATTATCACACCCATAAATTGATATTGCCTCTACATGAATTCAAAGTTATGTAATATAGTACTATGTACGCACCGACAC	-0.373 ± 0.31	0.172 ± 0.19
ACATTTGTTGATACAACCATAAAATGATAATTACACCCATAAATTGATAATTATCACACCCATAAATTGATATTGCCTCTGATAACTTCGTATAGTATACATTATACGAAGTTATTCGCACCGACAC	-2.13 ± 0.21	2.27 ± 0.2

Sequence	relative integration efficiency (log2) [1]	relative integration efficiency (log2) [2]
ACATTTGTTGATACAACCATAAAATGAAAATTACACCCATAAATTGAAAATTATCACACCCATAAATTGAAATTGCCTCTGATCATAGTCAGACCAACATTGCTACGACCCGTATTCGCACCGACAC	-1.13 ± 0.26	0.0682 ± 0.25
ACATTTGCTGATAGAACCATATAATGATAATAACACCAATAAAATGATAATTATCACACCCAATTTAACTATAACGCTCTGATCATAGTCAGACCAACATTGCTACGACCCGTATTCGCACCGACAC	-3.5 ± 0.17	-2.34 ± 0.35
ACATTTGTTGATACAACCATAAAATGATAATTAATAATTATTTATAATCAGCACACCCATAAATTGATAATTATCACACCCATAAATTGATATTGCCTCTGATCATAGTCAGACCAACATTGCTACG	-4.17 ± 0.11	-2.77 ± 0.42
ACATTTGTTGATACAACCATAAAGTGATATTTACACCCATAAATTGATAATTATCAGTGGGTATTTAACTATAACGCTCTGATCATAGTCAGACCAACATTGCTACGACCCGTATTCGCACCGACAC	-0.826 ± 0.22	2.57 ± 0.054
ACATTTGTTGATACAACCATAAAATGATAATTACACCCATAAATTTCGCATTATCACACCCATAAATTGATATTGCCTCTGATCATAGTCAGACCAACATTGCTACGACCCGTATTCGCACCGACAC	-1.91 ± 0.14	-1.39 ± 0.6
ACATTTGTTGAGCCAACCATAAAATGATAATTACACCCATAAATTGATAATTATCACACCCATAAATTGATATTGCCTCTGATCATAGTCAGACCAACATTGCTACGACCCGTATTCGCACCGACAC	-0.297 ± 0.0032	-0.934 ± 0.11
ACATTTGTTGATACACCCATAAATTGATATTGCCAACCATAAAATGATAATTATCAGTGGGTATTTAACTATAACGCTCTGATCATAGTCAGACCAACATTGCTACGACCCGTATTCGCACCGACAC	-1.21 ± 0.35	2.28 ± 0.096
ACATTTGTTGATACAACCATTAAATGATAATTCCACCCATAAATTGATAATTATCACACCCAATTTAACTATAACGCTCTGATCATAGTCAGACCAACATTGCTACGACCCGTATTCGCACCGACAC	-1.06 ± 0.17	2.34 ± 0.17
ACATTTGTTGATACAACCATAAAATGATAATTACCCCCATAAATTGATAATGATGACACCGAATTTAACTATAACGCTCTGATCATAGTCAGACCAACATTGCTACGACCCGTATTCGCACCGACAC	-1.63 ± 0.46	2.16 ± 0.067
ACATTTGTTGATACAACCATAAAATGATAATTACACCCATAAATTGATAATTATGACACCGAATTTAACTATAACGCTCTGATCATAGTCAGACCAACATTGCTACGACCCGTATTCGCACCGACAC	-1.22 ± 0.39	2.37 ± 0.096
ACATTTGTTGATACAACCATAAAATGATAATTACACCCATAAATTTATTATTATCACACCCAATTTAACTATAACGCTCTGATCATAGTCAGACCAACATTGCTACGACCCGTATTCGCACCGACAC	-2.3 ± 0.59	1.56 ± 0.26
ACATTTGTTGATACAACCATAAAATGATAATTACTCTGATCATAGTCAGACCACACCCATAAATTGATAATTATCAGTGGGTATTTAACTATAACGACATTGCTACGACCCGTATTCGCACCGACAC	-0.22 ± 0.33	2.27 ± 0.15
ACATTTGTGGATACAACCCTAAAATGATAATTACACCCATAAATTGATAATTATCACCCCCAATTTAACTATAACGCTCTGATCATAGTCAGACCAACATTGCTACGACCCGTATTCGCACCGACAC	-2.2 ± 0.29	0.686 ± 0.29
ACATTTGTTGATAGTTGGTATTTTACTATTAATCACCCATAAATTGATAATTATCAGTGGGTATTTAACTATAACGCTCTGATCATAGTCAGACCAACATTGCTACGACCCGTATTCGCACCGACAC	-5.71 ± 0.79	-4.49 ± 1.4
ACATTTGTTGATACACCCATAAATTGATATTGCCAACCATATATTGATATCTCTCACAACCATAAAGTGATATTTACTCTGATCATAGTCAGACCAACATTGCTACGACCCGTATTCGCACCGACAC	-1.21 ± 0.24	-0.365 ± 0.021
ACATTTGTTGATACAACCATAAAATGATAAGGACACCCATAAATTGATAATTATCACACCCATAAATTGATATTGCCTCTGATCATAGTCAGACCAACATTGCTACGACCCGTATTCGCACCGACAC	-0.956 ± 0.034	-0.358 ± 0.15
ACATTTGTTGATACAACCATAAAATGATAATTCACACCATAAATTGATAATTATCACACCCATAAATTGATATTGCCTCTGATCATAGTCAGACCAACATTGCTACGACCCGTATTCGCACCGACAC	-0.218 ± 0.014	-0.473 ± 0.22
